From patent CN113045659A (NOVOPROTEIN SCIENT INC, dated 2021) come the findings set out here.

For assay [1], the target named is T1, SK-OV-3细胞上的CD73 (human, UniProt P21589 27-549).
T1 construct: whole, on cells; Endogenous CD73 of the human CD73-positive cell line SK-OV-3; also called 人CD73阳性细胞; SK-OV-3细胞表面的CD73
T1 sequence (looked up): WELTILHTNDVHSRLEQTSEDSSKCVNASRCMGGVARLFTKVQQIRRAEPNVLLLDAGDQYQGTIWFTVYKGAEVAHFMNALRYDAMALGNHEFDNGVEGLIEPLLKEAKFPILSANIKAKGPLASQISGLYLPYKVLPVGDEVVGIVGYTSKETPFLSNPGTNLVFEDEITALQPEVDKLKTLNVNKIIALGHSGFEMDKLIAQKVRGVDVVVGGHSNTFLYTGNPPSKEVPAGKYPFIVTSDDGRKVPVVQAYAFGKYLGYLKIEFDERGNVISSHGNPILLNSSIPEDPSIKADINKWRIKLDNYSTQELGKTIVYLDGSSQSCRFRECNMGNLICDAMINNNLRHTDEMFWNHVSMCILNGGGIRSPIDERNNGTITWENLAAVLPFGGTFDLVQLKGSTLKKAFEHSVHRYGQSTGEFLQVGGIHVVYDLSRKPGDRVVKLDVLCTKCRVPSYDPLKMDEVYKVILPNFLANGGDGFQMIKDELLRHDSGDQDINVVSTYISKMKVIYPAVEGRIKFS
The experiment in a line: flow cytometry on SK-OV-3 cells, Anti-hFC-APC. A general note: In flow cytometry, cells or beads pass a laser one at a time.

The target in assay [2] is T2, 重组人CD73蛋白 (human, UniProt P21589 27-547, limits assumed).
T2 construct: Coated at 3 ug/ml in the ELISA and used at 5 ug/ml in the enzyme assay; also called rhCD73
T2 sequence (looked up): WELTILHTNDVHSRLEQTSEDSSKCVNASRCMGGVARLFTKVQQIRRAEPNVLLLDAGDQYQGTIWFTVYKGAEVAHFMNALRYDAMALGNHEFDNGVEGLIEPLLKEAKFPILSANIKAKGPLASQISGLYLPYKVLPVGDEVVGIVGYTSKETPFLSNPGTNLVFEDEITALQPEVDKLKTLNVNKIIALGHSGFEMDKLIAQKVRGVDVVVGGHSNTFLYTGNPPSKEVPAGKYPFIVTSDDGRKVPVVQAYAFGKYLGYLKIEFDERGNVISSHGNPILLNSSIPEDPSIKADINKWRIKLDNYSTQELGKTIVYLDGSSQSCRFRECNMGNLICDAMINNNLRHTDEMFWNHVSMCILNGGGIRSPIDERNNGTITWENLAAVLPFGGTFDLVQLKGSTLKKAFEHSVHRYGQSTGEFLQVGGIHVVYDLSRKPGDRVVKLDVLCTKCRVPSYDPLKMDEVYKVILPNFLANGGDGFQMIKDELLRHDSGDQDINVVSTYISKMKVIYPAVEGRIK
The experiment in a line: ELISA, recombinant human CD73 coated at 3 ug/ml.

Substitutions are numbered along the chain they refer to.

B1: 137-4 (antibody, IgG1, V domains shown)
VH: QVQLVQSGAEVKKPGSSVKVSCKASGYSFTGYYIHWVRQAPGQGLEWMGRINPYNGATTYNQNFKDRVTITVDKSTSTAYMELSSLRSEDTAVYYCARFHYGAVDYWGQGTLVTVSS
VL: DIQMTQSPSSLSASVGDRVTITCKASQDINTYLTWYQQKPGKAPKTLIYRANILVDGVPSRFSGSGSGTDFTLTISSLQPEDFATYYCLQYEEFPLTFGGGTKVEIKR
notes: also called 人源化CD73抗体; CQ137人源化抗体; not shown: kappa constant region
In the case of B1, the binding result in assay [1] and in assay [2] was “binds” in each case.

B2: 137-8 (antibody, IgG1, V domains shown)
VH: B1 VH with V104P, Y106F
VL: B1 VL with E92D, E93Q
notes: as for B1
In the case of B2, the binding result in assay [1] and in assay [2] was “binds” each time.

B3: 137-9 (antibody, IgG1, V domains shown)
VH: B1 VH with V104P, Y106L
VL: B1 VL with E92D, E93A
notes: as for B1
B3: the binding result in assay [1] and in assay [2] was “binds” throughout.

B4: 137-7 (antibody, IgG1, V domains shown)
VH: B1 VH with V104P, D105N
VL: B1 VL with E92D, E93D
notes: as for B1
For the molecule B4, the binding result in assay [1] and in assay [2] was “binds” in each case.

B5: 137-5 (antibody, IgG1, V domains shown)
VH: B1 VH with V104A
VL: B1 VL with E92N
notes: as for B1
For B5, the binding result in assay [1] and in assay [2] was “binds” throughout.

B6: 137-6 (antibody, IgG1, V domains shown)
VH: B1 VH with V104P, D105E
VL: B1 VL with E92A
notes: as for B1
On to B6, for which the binding result in assay [1] and in assay [2] was “binds” each time.
